Drawing on publication PMC2042504, this text covers percent of the radioactivity in the oligomer peak, stoichiometry N and FRET efficiency for 3 substances.

In test [1] the target is 35S-labeled Vpu TM domain, in vitro translated (gel permeation) (HIV-1, isolate not stated (NL4-3 and R5 cloned)). The experiment in a line: SEC; gel permeation of 35S-labeled in vitro translation mixture on Sephacryl S200HR in PBS, calibrated with lysozyme and BSA; pentamer and monomer peaks.
Test [2] concerns the target 35S-labeled full-length Vpu protein, in vitro translated (gel permeation) (HIV-1, isolate not stated (NL4-3 and R5 cloned)). Described as above.
Test [3] has as its target Vpu fused to ECFP or to EYFP (HIV-1, isolate not stated (NL4-3 and R5 cloned)). Description: FRET or BRET; acceptor photobleaching FRET of ECFP-Vpu and EYFP-Vpu in live COS-1 cells with low expression, punctate and vesicular distribution.
Test [4] shares this target. The experiment in a line: FRET or BRET; acceptor photobleaching FRET of ECFP-Vpu and EYFP-Vpu in live U2-OS cells, regions that appeared to be Golgi or unidentified vesicles. (In general: BRET reads energy transfer from a luciferase to a nearby fluorophore.)

For orientation: stoichiometry N means the number of molecules, sites or subunits per partner or assembly. Take “35S-labeled Vpu TM domain, in vitro translated (gel permeation) (domain or fragment)”: in test [1], the percent of the radioactivity in the oligomer peak came to 10% and the stoichiometry N was 5.
As for “35S-labeled full-length Vpu protein, in vitro translated (gel permeation) (natural protein)”, in test [2], the percent of the radioactivity in the oligomer peak amounted to 10% and the stoichiometry N stood at 5.
For the substance “Vpu fused to ECFP or to EYFP (natural protein)”, the FRET efficiency in test [3] came out at 18.5%; in test [4] it was 26%.
